According to PMC8766921 (Molecular biotechnology, 2021):

Target: the molecule itself
Test: SDS-PAGE under reducing and non-reducing conditions

B1: BMP-4 growth factor (GF) from the B2/4 construct (BMP-2 pro-domain and BMP-4 GF sequence) (ligand, human, UniProt P12644 293-408, looked up)
chain: SPKHHSQRARKKNKNCRRHSLYVDFSDVGWNDWIVAPPGYQAFYCHGDCPFPLADHLNSTNHAIVQTLVNSVNSSIPKACCVPTELSAISMLYLDEYDKVVLKNYQEMVVEGCGCR
modifications: two N-linked glycans
In the case of B1, the “stoichiometry N” value is reported as 2.
